Reference: PMC3905896 (Nucleic Acids Research, 2013)

T1: PtxS (assayed together with PtxR at Pgad) (Pseudomonas aeruginosa, UniProt G3XD97)
T1 sequence (G3XD97 1-340): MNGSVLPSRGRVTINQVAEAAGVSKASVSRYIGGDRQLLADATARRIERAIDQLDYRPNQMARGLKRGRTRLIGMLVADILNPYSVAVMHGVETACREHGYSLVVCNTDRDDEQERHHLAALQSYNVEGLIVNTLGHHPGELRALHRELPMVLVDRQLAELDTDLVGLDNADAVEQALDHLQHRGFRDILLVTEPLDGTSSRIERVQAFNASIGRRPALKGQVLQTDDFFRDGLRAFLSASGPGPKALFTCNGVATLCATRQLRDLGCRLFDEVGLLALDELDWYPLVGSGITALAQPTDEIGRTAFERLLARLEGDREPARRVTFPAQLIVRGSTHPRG

T2: PtxR (Pseudomonas aeruginosa, UniProt P72131 1-312)
T2 sequence (looked up): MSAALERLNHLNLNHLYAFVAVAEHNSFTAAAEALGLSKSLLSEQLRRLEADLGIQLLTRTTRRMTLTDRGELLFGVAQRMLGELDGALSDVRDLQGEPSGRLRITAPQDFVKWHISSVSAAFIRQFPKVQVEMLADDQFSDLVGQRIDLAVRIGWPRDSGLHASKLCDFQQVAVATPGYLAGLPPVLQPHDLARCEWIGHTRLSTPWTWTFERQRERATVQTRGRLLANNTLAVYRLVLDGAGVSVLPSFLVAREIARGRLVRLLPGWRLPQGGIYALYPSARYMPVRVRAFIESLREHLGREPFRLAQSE


Columns and labels:
[1] = molecular target: T1, PtxS (assayed together with PtxR at Pgad); format: biochemical
PtxR = molecular target: T2, PtxR; assay: ITC

Row | Molecule | EC50 [1] [µM] | KD of the first binding event (PtxR) [µM] | KD of the second binding event (PtxR) [µM] | dH of the first binding event (PtxR) [kJ/mol] | dH of the second binding event (PtxR) [kJ/mol]
1 | O=C(O)C(=O)[C@@H](O)[C@H](O)[C@H](O)CO [2-ketogluconate] | 78 | – | – | – | –
2 | PtxS (natural protein, Pseudomonas aeruginosa, UniProt G3XD97 1-340, looked up) MNGSVLPSRGRVTINQVAEAAGVSKASVSRYIGGDRQLLADATARRIERAIDQLDYRPNQMARGLKRGRTRLIGMLVADILNPYSVAVMHGVETACREHGYSLVVCNTDRDDEQERHHLAALQSYNVEGLIVNTLGHHPGELRALHRELPMVLVDRQLAELDTDLVGLDNADAVEQALDHLQHRGFRDILLVTEPLDGTSSRIERVQAFNASIGRRPALKGQVLQTDDFFRDGLRAFLSASGPGPKALFTCNGVATLCATRQLRDLGCRLFDEVGLLALDELDWYPLVGSGITALAQPTDEIGRTAFERLLARLEGDREPARRVTFPAQLIVRGSTHPRG | – | 0.012 ± 0.002 | 0.099 ± 0.008 | -114 ± 2.93 | -54.4 ± 3.35
